The data set concerns the molecule itself. Description: SEC-MALS.

B1: Exo-β-N-acetylmuramidase NamZ of Bacillus subtilis 168, recombinant, C-terminal His6-tag fusion protein (enzyme)
chain: SPDSKNQTAKKPKVQTGIDTLLPDYKKQLKGKRIGLITNPAGVNTSLKSSVDILYENPDIKLTALFGPEHGVRGDAQAGDEVGSYIDEKTGVPVYSLYGKTKKPTPEMLKNVDILMFDIQDVGTRFYTYIYTMAYAMEAAKENGIPFMVLDRPNPQGGNHIEGPILEPEYASFVGLYPIPLKHGMTIGELASLFNKEFSIDADLTVVKMKHWKRKMDFDDTRLPFVLPSPNMPTVESTFVYPATGLIEGTNISEGRGTTKPFELIGAPFIKSTELEETLNSLHLPGVTFRAASFTPTFSKHQGTLCHGVQLYVTDRDKFEAVKTGLSVIKTIHDLYPEDFEFLSTGSFDKLAGNGWIRTKIENGTSVENIINSYEKTLQQFSKTRKKYLIY
Broadly, the stoichiometry N is a count of units in the complex or per binding partner. In the case of B1, the “stoichiometry N” value was determined as 2.

These data come from paper doi:10.1101/2021.01.10.425899 (bioRxiv, 2021).
